Drawing on patent US20260167684A1 (MERIDA BIOSCIENCES, published 2026), this text covers binding result and Kd for 1 molecule.

By Kd is commonly meant the free concentration of one partner at which half of the binding sites on the other are occupied at equilibrium, for simple one-to-one binding.

For one assay, the target named is T1, FcγRIIA167H (UniProt P12318 36-218).
T1 construct: Soluble protein used in SPR
T1 sequence (looked up): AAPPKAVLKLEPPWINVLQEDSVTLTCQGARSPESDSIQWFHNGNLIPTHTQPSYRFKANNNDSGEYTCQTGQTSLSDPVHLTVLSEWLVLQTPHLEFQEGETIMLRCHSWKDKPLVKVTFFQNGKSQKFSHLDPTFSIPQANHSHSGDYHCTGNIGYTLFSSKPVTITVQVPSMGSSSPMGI
In words: SPR, molecule captured on sensor chip, FcγRIIA167H as analyte, steady-state plot of response against concentration. As for the experimental part: (§1) Binding assays using SPR were performed to determine the binding affinity of the exemplary molecules. Molecules were captured on a CM5 SPR chip. Increasing concentrations of FcγR analyte (FcγRIIA167H, FcγRIIA167R or FcγRIIB) were subsequently injected over the captured molecules and a single dissociation performed using single cycle kinetics. The data was then analyzed using steady state analysis which is suitable for low affinity interactions. In particular, a plot of response at equilibrium against the molecule concentration was generated.
(Surface plasmon resonance follows binding to a sensor surface in real time, without labels.)

In a further assay the target is T2, FcγRIIA167R (UniProt P12318 36-218).
T2 construct: Soluble protein used in SPR
T2 sequence (looked up): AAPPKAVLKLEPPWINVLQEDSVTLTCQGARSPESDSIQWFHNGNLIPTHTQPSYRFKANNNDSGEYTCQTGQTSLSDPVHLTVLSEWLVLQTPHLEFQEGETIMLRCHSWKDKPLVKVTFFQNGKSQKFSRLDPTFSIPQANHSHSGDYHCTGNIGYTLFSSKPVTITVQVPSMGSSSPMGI
In words: SPR; molecule captured on CM5 chip, FcγR as analyte; steady-state fit. As for the experimental part:
as §1

In a further assay the target is T3, FcγRIIB (human, UniProt P31994 46-217, limits assumed).
T3 construct: Soluble protein used in SPR
T3 sequence (looked up): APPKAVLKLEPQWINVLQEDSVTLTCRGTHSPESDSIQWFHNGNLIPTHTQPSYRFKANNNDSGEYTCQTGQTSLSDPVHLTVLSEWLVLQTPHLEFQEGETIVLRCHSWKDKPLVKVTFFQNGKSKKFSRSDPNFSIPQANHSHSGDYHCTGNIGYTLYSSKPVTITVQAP
The description is as above. As for the experimental part:
as §1

B1: Variant G11 (Fc fusion)
chain 1: MGCSSPPCECHQEEDFRVTCKDIQRIPSLPPSTQTLKLIETHLRTIPSHAFSNLPNISRIYVSIDVTLQQLESHSFYNLSKVTHIEIRNTPNLTYIDPDALKELPLLKFLGIFNTGLKMFPPLTKVYSTDIFFILEITDNPYMTSIPRNAFQGLCNETLTLKLYNNGFTSVQGYAFNGTKLDAVYLNKNKYLTVIDKDAFGGVYSGPSLLDVSQTSVTALPSKGLEHLKELRARNTWTLDKTHTCPPCPAPELLGGDSVFLFPPKPKDTLMISRTPEVTCVVVDVSHEEGEVKFNWYVDGVEVHNAKTKPREEQYNSTYRVVSVLTVLHQDWLNGKEYKCKVSNKALPAPIEKTISKAKGQPREPQVYTLPPCREEMTKNQVSLWCLVKGFYPSDIAVEWESNGQPENNYKTTPPVLDSDGSFFLYSKLTVDKSRWQQGNVFSCSVMHEALHNHYTQKSLSLSPGK
chain 2: DKTHTCPPCPAPELLGGDSVFLFPPKPKDTLMISRTPEVTCVVVDVSHEEGEVKFNWYVDGVEVHNAKTKPREEQYNSTYRVVSVLTVLHQDWLNGKEYKCKVSNKALPAPIEKTISKAKGQPREPQVCTLPPSREEMTKNQVSLSCAVKGFYPSDIAVEWESNGQPENNYKTTPPVLDSDGSFFLVSKLTVDKSRWQQGNVFSCSVMHEALHNHYTQKSLSLSPGK
notes: Knob-in-hole heterodimer; also called TSHR260 2P2R huIgG1 Fc P238D/D270E/P271G
For the molecule B1, the binding result with FcγRIIA167H is “no binding (tested: about 2.4e-6 M)”. The figures for the Kd with FcγRIIA167R and with FcγRIIB were 3490 nM and 987 nM, respectively.
